Reference: paper PMC3573685
Like-named read-outs stand apart in the source and are kept apart here.

Tests used:
[1] = biological target: Aquifex aeolicus TatC (Aquifex aeolicus); assay: ITC
[2] = biological target: Aquifex aeolicus TatC (Aquifex aeolicus)

Chain of Tat signal peptide of the E. coli protein SufI (P26648 1-27 limits assumed): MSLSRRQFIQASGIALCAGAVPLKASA

For “Tat signal peptide of the E. coli protein SufI”, the Kd [1] was 3000 nM and the stoichiometry N [1] was 1.
Aquifex aeolicus TatC (natural protein) showed a stoichiometry N [2] of 2.
